# From the supplement of paper PMC9170038
# How the values were obtained:
# [1] = test system: MS2 coat protein; assay: apparent KD of MS2 coat protein, switch ON state; designed switch direction (-1 OFF switch, 1 ON switch): 1; higher = weaker reporter binding; details: FMN input: 0 or 200 uM; Eterna round: R93 (includes R88 designs)
# Outline: (§1)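 Designed RNA switches were made by on-chip transcription from Illumina sequencing clusters and then titrated with SNAP-549-labelled MS2 coat protein. Twofold steps ran from 0.7 or 1.5 nM to 3 µM, each lasting 0.8–1.5 h early and 10–20 min late, in 100 mM Tris-HCl pH 7.5, 80 mM KCl, 4 mM MgCl2, without or with constant ligand. Apparent KD is the per-design median of normalised cluster binding-curve fits.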
# [2] = test system: MS2 coat protein; assay: apparent KD of MS2 coat protein, switch OFF state (with FMN for OFF switches, without FMN for ON switches); designed switch direction (-1 OFF switch, 1 ON switch): 1; higher = weaker reporter binding; details: FMN input: 0 or 200 uM; Eterna round: R93 (includes R88 designs)
# Outline: as §1
Sequence,apparent KD of MS2 coat protein [1] [nM],apparent KD of MS2 coat protein [2] [nM]
AUAAAUAAAAGUGAGGAUAUCCAAAAAAAAACAUGAGGAUCACCCAUGUAAAAGAAAAUAAAAUGGGAGAAGGCACAAAAUAAAU [SS2 M 10],11.9,26.2
AUAAUAAUAAGGUAGGAUAUACUAAAGUAAACAUGAGGAUCACCCAUGUAAAGAAAAAAACUCAUGUAGAAGGGCCAGAAAUAAA [moonwalk 3],53.2,62.3
AUAAUACAUGAGGAUCACCCAUGUCAAGGCUAUCAAGGAUAUAGACAACGUAGCGGUUGACUAGAAGGUGAGAAAU [Onxeanis],124,78.8
AUAUGCAUAGACAAGGAUAUCGGUCUAGAAACAUGAGGAUCACCCAUGUAAGUGAAAAUCUGUAAUGAGAAGGUGUUGUUGGGUU [Isan],75,89.4
AUGAAAGUAACACAGGAUAUCGAGGAUACAACAUGAGGAUCACCCAUGUACAUACGAACGUAUAACGAGAAGGGUGGAUGAUCUUC [ss2],140,62.8
CAGGACAUAGGAUAGGAUAUAUGAAUAAUUACAUGAGGAUCACCCAUGUCCAUUUAUAUGGGAACAUAGAAGGGUUGUAGUUAUG [Mat - Same state - Malcolm Mod - D143],515,388
CCGAUACAUGAGGAUCACCCAUGUUAGGUAGAACAAGGAUAUCUAGAUAGAUAAAAAUAUAGAGAAGGUGUAUAAC [JR_SS001_Sub208],17.1,26
CCGAUGGUAUACUAGGAUAUGGGCGCCCUUACAUGAGGAUCACCCAUGUUAUCACAAAUCCGCGGCCAGAAGGAGUUCAUGGGAG [Ustiririra],62.8,151
CGAAAGGAGAGAGAGGAUAUCCAAAGGAAAACAUGAGGAUCACCCAUGUAGAAGGUAGGAGAUUGGGAGAAGGCUCAAGAGAGAC [salish99-ss2-148],24,48.2
CGGAGACAUGAGGAUCACCCAUGUGAGAAGAGGCGAGGAUAUUGAAAGAAAGAAGAGAAAUGAGAAGGCGCGAGCC [salish99-SS1-083],55.3,38.1
CGGCUAAACGGGCAGGAUAUGUUCACUAGAACAUGAGGAUCACCCAUGUGAAACUGGCGAUAAUCGCAGAAGGGCCCGUGCACGA [Atensoin],17.6,61.3
CGGCUACAUGAGGAUCACCCAUGUCAGCCGAGGGCAGGAUAUGUGGUUCAUUCUCAAGCAACAGAAGGGUCAAAAG [Istiacedi],16.9,18.7
GAAAAACAUGAGGAUCACCCAUGUAAUACAACAUCAGGAUAUUGAUUUUACUAUGUAUUGCAAGAAGGGAUGAAAG [Mat - Same State 1 - Hyphema mod - D100],57.2,42.6
GAAAAACAUGAGGAUCACCCAUGUAGAAAUAUGGGAGGAUAUACAAAGACGAAAGUCAAAGUAGAAGGCCUGAUAG [JL S1 M-MoE mod 3],28.6,79.2
GAAAAACAUGAGGAUCACCCAUGUAGAAAUAUGGGAGGAUAUACAAAGUCGAAAGACAAAGUAGAAGGCCUAAAAG [Mat - Same State 1 - Eli mod - D2],24.6,67.1
GAAAAACAUGAGGAUCACCCAUGUAGAAAUAUGGGAGGAUAUACGAAGUCGAAAGACAAAGUAGAAGGCCUAAAAG [Garnet 27],27.9,50.4
GAAAAACAUGAGGAUCACCCAUGUGAUAACAUGGGAGGAUAUACAAGGACGAUAGUCAAAGUAGAAGGCCUAAAAG [Garnet 61],289,47.9
GAAAAACAUGAGGAUCACCCAUGUGAUAAUAUGGGAGGAUAUACGAAGACGAAAGUCAAAGUAGAAGGCCUAAAAG [Garnet 36],57.5,81.7
GAAAAACAUGAGGAUCACCCAUGUGUAAACAUGGGAGGAUAUACGAAGACGUAAGUCAAAGUAGAAGGCCUAAAAG [Garnet 36],47.1,24.9
GAAAAGAAAACACAGGAUAUCCAAAAGAAAACAUGAGGAUCACCCAUGUAAAGAAAAUAAAAAUGGGAGAAGGGUGAAAGAAAGA [Mat - Same State 2 - JL mod - D42],20.9,53.6

Sequence,apparent KD of MS2 coat protein [1] [nM],apparent KD of MS2 coat protein [2] [nM]
GAAAUACAUGAGGAUCACCCAUGUUAGGUGAUUCAAGGAUAUCAAGGUAAAUAAAAACCUUGAGAAGGUGAAUAAA [JR_SS001_Sub205],177,163
GAAAUACAUGAGGAUCACCCAUGUUAGGUGGAUCAAGGAUAUCAAGGUAAAUAAAAACCUUGAGAAGGUGAAUAAA [JR_SS001_Sub204],87.8,141
GAAAUACAUGAGGAUCACCCAUGUUAGGUGGGUCAAGGAUAUUGAUAUAAAUAAAAAACUCGAGAAGGUGAAUAAA [JR_SS001_Sub201],229,179
GAAGAACAUGAGGAUCACCCAUGUGAGAACAUGGGAGGAUAUACGAGGACGAAAGUCAAAGUAGAAGGCCUAAGAG [Garnet 87],104,29.8
GAAGACAUAGUUCAGGAUAUAUGAAUAGUCACAUGAGGAUCACCCAUGUCCAUUUAUAUGGGCACAUAGAAGGGAGGUAGUUAUC [SameState2 Malc#25],618,380
GACAGACAUGAGGAUCACCCAUGUAGAAUUAUGGGAGGAUAUACAAAGACGAGAGUCAGAGUAGAAGGCCUAGGAA [salish99-ss1-167],23.2,52.8
GAUAGGAAGAGAGAGGAUAUCCAAAGGAAAACAUGAGGAUCACCCAUGUAAAAGGUAGGAAAUUGGGAGAAGGCUCAAGAGAGAG [salish99-ss2-075],11.6,31.9
GCAAAACAUGAGGAUCACCCAUGUGAAAAGAAUGUAGGAUAUGGGCUCAGAAAUAGCAGCCCAGAAGGGCGAAGAA [Xequamara],21.9,24.8
GCCGGUUAUGAGCAGGAUAUGUCACCGCUAACAUGAGGAUCACCCAUGUGAGCAAAAUCGAGGUCACAGAAGGGUUCCGGCAAAA [Disoerce],17.8,41.9
GGGAGACAUGAGGAUCACCCAUGUGAGAAGAGGCGAGGAUAUCGAAAGAAAGAAGAGAAACGAGAAGGCGCGAGUG [salish99-SS1-058],64.8,82
GGGAGGAAGAGAGAGGAUAUCCAAAGGAAAACAUGAGGAUCACCCAUGUAAAAGGUAGGAAAUUGGGAGAAGGCUCAAAAGAGUG [salish99-ss2-043],13.7,22.2
GGGAGGAAGAGAGAGGAUAUCCAAAGGAAAACAUGAGGAUCACCCAUGUAAAAGGUAGGAAAUUGGGAGAAGGCUCAAAAGAUGG [salish99-ss2-046],70.5,22.3
UAACGCGCAUGCAAGGAUAUGUGCAGAGCUACAUGAGGAUCACCCAUGUGGUUAUGCUAUUGAAAACAGAAGGUGCCCUCGCUCA [Ceties],22.4,16.8
UAUCAUUACACGAAGGAUAUCGAUAAUUGAACAUGAGGAUCACCCAUGUGAUAUAUAAUACAGUUCGAGAAGGUCGAGGGUGAAG [JR_SS002_Sub704],17.8,23.9
UGAAGACAUGAGGAUCACCCAUGUGGGAAUAUGGGAGGAUAUACAAAGACGAGAGUCAGAGUAGAAGGCCUAGGAA [salish99-ss1-95],28.5,114
UGAAGACAUGAGGAUCACCCAUGUGGGAAUAUGGGAGGAUAUACAAAGACGAGAGUCAGAGUAGAAGGCCUAGGAG [salish99-ss1-97],55.1,103
UGAGGACAUGAGGAUCACCCAUGUAGGCCACAAUCAGGAUAUGCAUUAAGGUACCUAAGAGUAGAAGGGAUUCGAG [SameState_Neo],34.9,30.8
UGGAGACAUGAGGAUCACCCAUGUGAGAAGAGGCGAGGAUAUCGAAAGAAAGAAGAGAAACGAGAAGGCGCGAGAU [salish99-SS1-034],21,27.6
UGGAGACAUGAGGAUCACCCAUGUGAGAAGAGGCGAGGAUAUCGAAAGAAAGAAGAGAAACGAGAAGGCGCGAGGA [salish99-SS1-039],47.6,49.8
